{"source": "the DeepSol protein solubility set", "data": [{"experiment": "soluble on expression in E. coli; label from the status in PepcDB or PDB records", "values": [{"sequence": "MSNKNYVFEEAKESLSSILFNGDSDRTEAGFFDGSVESWNDEDMIDGAKWVDRLVSEMTKAINIDDMRRRVAVILEALESIIKKNTNASKKLEYASMKESLQSLINDNQILKRVIANQHQRSSENEEKAKQVLHLRGVVGQYQEQVHKLELSNYAMKLHLQRSQQQQTSFSGNLPPDIY", "soluble on expression in E. coli": "soluble"}, {"sequence": "MDSINTRIAEELSALPSGRVQPQQVAAAVALLDEGSTVPFIARYRKEVTGSLDDTQLRMLEERLRYLRELEERRGAILASIEEQGKLTPELARDIKLADTKTRLEDLYLPYKQKRRTKGQIALEAGLGALADALFDDPTLVPESEAARFVDAEKGFADVKAVLEGAKYILMERFAEDATLLDKLRVFMKNEATLTARVVPGKEQEGAKFSDYFEHDEPLKSAPSHRALAIFRGRNEGVLSASLKVGEEAPGTLHPCEVMIAERFGLSNQGRAADKWLAEVVRWTWKVKLYTHLETDLFGELRDGAEDEAISVFARNLHDLLLAAPAGPRATLGLDPGLRTGVKVAVVDATGKLLDTATVYPHAPKNQWDQTLAVLAALCAKHQVELIAIGNGTASRETDKLAGELIKKYPGMKLTKIMVSEAGASVYSASELAAKEFPELDVSLRGAVSIARRLQDPLAELVKIEPKSIGVGQYQHDVSQLKLARSLDAVVEDCVNAVGVDVNTASAALLARISGLNSTLAQNIVAHRDANGAFRTRDELKKVSRLGEKTFEQAAGFLRVMNGDNPLDASAVHPETYPLVQRIAADTERDIRSLIGDSAFLKRLDPKKFTDETFGLPTVTDILKELDKPGRDPRPEFKTAEFQEGVESLKDLKPGMVLEGVVTNVTNFGAFVDIGVHQDGLVHISALSEKFVKDPYEVVKAGDIVKVKVMEVDIPRNRVGLSMRMSDTPGEKVEGQRGGRPTGSGQPRQERGAPRGQSAPPANNAMAALFANAKQLKKKHHHHHH", "soluble on expression in E. coli": "soluble"}, {"sequence": "GMNNRELYGNIRDVYHLLQKNLDKAIEQYDISYVQFGVIQVLAKSGKVSMSKLIENMGCVPSNMTTMIQRMKRDGYVMTEKNPNDQRETLVYLTKKGEETKKQVDVQYSDFLKENCGCFTKEEEGILEDLLLKWKKHLN", "soluble on expression in E. coli": "soluble"}, {"sequence": "MVGRVAQGKEPLHPGPRRQPGGARPGADLGPGGGVNPSPRKRVALFTDGACLGNPGPGGWAALLRFHAHEKLLSGGEACTTNNRMELKAAIEGLKALKEPCEVDLYTDSHYLKKAFTEGWLEGWRKRGWRTAEGKPVKNRDLWEALLLAMAPHRVRFHFVKGHTGHPENERVDREARRQAQSQAKTPCPPRAPTLFHEEA", "soluble on expression in E. coli": "soluble"}, {"sequence": "MAGDPMLKQLKKVIITTAIALATLCSTQAFAETNPYLLMQKTADKLFTNIKNNQTKIKANPEYLRDIVREDLMSYVHIRYAGQLVLGKSLSSVSEPQREKFFNAFGKFIEQAYAQILTQYEDQQIQIENEKPLGDKSIVSIRVNVLSSGSTPPIKLDFKWRKNSKTGEWQAYDMAAEGVSMVATKQNEWSNILRQQGIDALTNQVEKAAKQPITLNKLEHHHHHH", "soluble on expression in E. coli": "soluble"}, {"sequence": "MKLSQMQAGERGIILALDGLSDTVRKKLMVMGVLPNTEVVLIRRAPMGDPLQVEVRGVSIALRENIAANIDVERAQ", "soluble on expression in E. coli": "not soluble"}, {"sequence": "MSRTMAEVNRLLKKTAGLINKDTESPFQGEFRVGVDLGTADIQTIVLDADGNPLAGFMDWANVVRDGVVVDFFGASQIVREQVRRASAKLGIQIEQVTTSFPPGTDSRISTNVIEAAGLEVAGVIDEPSSVAQLLQLDHAAVVDIGGGTTGTAIIEEGRVVRSMDDATGGRHITLTLAGHFGLPYEEAEEMKRTSKDLALCRLAAPVIAKMADIVHGHIAGHKVPAIYLTGGSCALPGFLEVFAAEFPGIEIVMPSHPLYLTPLAIATYSDVLQTREQRVGLEHHHHHH", "soluble on expression in E. coli": "not soluble"}, {"sequence": "MADLLPPLTAAQVDAKTKVDEKVDYSNLPSPVPYEELHREALMSLKSDNFEGLRFDFTRALNQKFSLSHSVMMGPTEVPAQSPETTIKIPTAHYEFGANYYDPKLLLIGRVMTDGRLNARLKADLTDKLVVKANALITNEEHMSQAMFNFDYMGSDYRAQLQLGQSALIGATYIQSVTNHLSLGGEIFWAGVPRKSGIGYAARYETDKMVASGQVASTGAVVMNYVQKISDKVSLATDFMYNYFSRDVTASVGYDYMLRQARVRGKIDSNGVASALLEERLSMGLNFLLSAELDHKKKDYKFGFGLTVG", "soluble on expression in E. coli": "not soluble"}, {"sequence": "MAHHHHHHMNFIKAEEKDKCAEEQGVKLFYLKSCKEKEYELHMDVCQAIVEDCPLLEVYVVSRGDGSSESGAFELYDNGQLIKKFTNCNVSTVTSFIRKYAQKGGSSPMEATQSGELNSTGKTDTVKKIEHLIGSNKIILFMKGSKTFPQCKFSNAVVFMLNSCKVKYTTYDILQDEDVRSELKIYSNWPTYPQLYINAELIGGHDIIKSMYDSGELRDVVPQDCFEG", "soluble on expression in E. coli": "soluble"}, {"sequence": "MDNVTSSQLLSVRHQLAESAGLPRDQHEFVSSQAPQSLRNRYNNLYSHTQRTLDMADMQHRYMTGASGINPGMLPHENVDDMRSAITDWSDMREALQHAMGIHADIVDYKDDDDK", "soluble on expression in E. coli": "soluble"}, {"sequence": "MRKRARIIYNPTSGKELFKRVLPDALIKLEKAGYETSAYATEKIGDATFEAERALESEYDLLIAAGGDGTLNEVVNGIAEQPNRPKLGVIPMGTVNDFGRALHLPSDIMGAIDVIIDGHTTKVDIGKMNNRYFINLAAGGKLTQVSYETPSKLKSIVGPFAYYIKGFEMLPQMKAVDVRIEYDDNIFQGEALLFLLGLTNSMAGFEKLVPDAKLDDGYFTLIIVEKANLAELGHIMTLASRGEHTKHPKVIYAKAKSINISSFTDMQLNVDGEYGGKLPANFLNLEQHIEIFTPKDVFNEELLENDTITDITPDKQ", "soluble on expression in E. coli": "not soluble"}, {"sequence": "MGVDPSVKVEYKAPTVTYDQVGFMSKSTLMTHEQLISVRSAKVRQSVKITVKEQIPKSHDDKIKVSIVSPEIKSSSSSKNSSPPDARLNKDHNLEWCVILAPGQHRLLPVRYTIEHPASESLSYKFN", "soluble on expression in E. coli": "not soluble"}, {"sequence": "EKQSIHRTQLEALDSVITDLETSAQKGISLTEPEIFASLLETCYSLRAIDHGVRVHHLIPPYLLRNNLGISSKLVRLYASCGYAEVAHEVFDRMSKRDSSPFAWNSLISGYAELGQYEDAMALYFQMAEDGVKPDRFTFPRVLKACGGIGSVQIGEAIHRDLVKEGFGYDVYVLNALVVMYAKCGDIVKARNVFDMIPHKDYVSWNSMLTGYLHHGLLHEALDIFRLMVQNGIEPDKVAISSVLARVLSFKHGRQLHGWVIRRGMEWELSVANALIVLYSKRGQLGQACFIFDQMLERDTVSWNAIISAHSKNSNGLKYFEQMHRANAKPDGITFVSVLSLCANTGMVEDGERLFSLMSKEYGIDPKMEHYACMVNLYGRAGMMEEAYSMIVQEMGLEAGPTVWGALLYACYLHGNTDIGEVAAQRLFELEPDNEHNFELLIRIYSKAKRAEDVERVRQMMVDRGLET", "soluble on expression in E. coli": "soluble"}, {"sequence": "MSGRGEPTMKTIIVGIDGSHAAITAALWGVDEAISRAVPLRLVSVIKPTHPSPDDYDRDLAHAERSLREAQSAVEAAGKLVKIETDIPRGPAGPVLVEASRDAEMICVGSVGIGRYASSILGSTATELAEKAHCPVAVMRSKVDQPASDINWIVVRMTDAPDNEAVLEYAAREAKLRQAPILALGGRPEELREIPDGEFERRVQDWHHRHPDVRVYPITTHTGIARFLADHDERVQLAVIGGGEAGQLARLVGPSGHPVFRHAECSVLVVRR", "soluble on expression in E. coli": "not soluble"}, {"sequence": "MGHHHHHHSHLGHSTMYMWAMGDREVFIELAEALTGARLTHSYPIPGGARRDIPADFPDMARRAVRYMRKRLDEYAKIFLNNPVIRSRLEGVGVIPKKAAAEMGIVGPNARGSGIDYDVRLVHPYDAYPEIDFEVPVFEEGDALARTYVRVEEIKQSLRIIEQAVEWLEKHPREPIVDKYLYGKYPPLHKKVLEAEGRAKLLPTVAAMKVPPGRAIGRAETGRGETVYYVESDGGVNPYRVRIVTASARNVIAFKYVLPGHRVMDIPAIYGSLDYFPPEADR", "soluble on expression in E. coli": "not soluble"}, {"sequence": "SYYHHHHHHHEGVRTMEEECRVLSIQSHVIRGYVGNRAATFPLQVLGFEIDAVNSVQFSNHTGYAHWKGQVLNSDELQELYEGLRLNNMNKYDYVLTGYTRDKSFLAMVVDIVQELKQQNPRLVYVCDPVLGDKWDGEGSMYVPEDLLPVYKEKVVPLADIITPNQFEAELLSGRKIHSQEEALRVMDMLHSMGPDTVVITSSDLPSPQGSNYLIVLGSQRRRNPAGSVVMERIRMDIRKVDAVFVGTGDLFAAMLLAWTHKHPNNLKVACEKTVSTLHHVLQRTIQCAKAQAGEGVRPSPMQLELRMVQSKRDIEDPEIVVQATVL", "soluble on expression in E. coli": "soluble"}, {"sequence": "MNVWLLGRGELRRRHDDVLQLERAFLTDRTGLHFVNARSSEDLLALAESRRAEQQWPVLDAEWISPVGTDTCDDLVWQNLESTLDGRPDTFYSTAGFEAGNTLSGTGELAPGEAFLAYRFWRPVRVYAVQLRAFQADFHPGRPVYPFQVARVGVGCSLQAGMSLSYGADASAPGTSCNYRCFCTTEQQTLVFDDPMVGVYLVICLKGFPQQQLTDRLHYAAVSGIRVFGEPISSPALENELSCLISRGFILDGRDAARWLDLRSAQEHAAPMHIPEDEVI", "soluble on expression in E. coli": "not soluble"}, {"sequence": "MPYRRRQSTAPKSGAPKSVRSAAAGQSLDIDGIHLHLTRKPIKNLYLRIKPPSGRVEISAPMRMSESRIADFVKERHSWILAQQQRMAEAQRRSIMALNEGAGFENGGRGVAGASGHDGGVAGRPKTGDISRPGIGDAGPGQAGTNVQPYFDRSQIWTDERKRQAAAAINAALPQLLAKWGPVVGRQPTHITLRVMTSRWGSCTPRTGRIRLNLQLGLMEPQFLEYVLVHEMTHLWESGHGAGFQRRMTAYLPGWKTLRRDLNRRVVLLEHHHHHH", "soluble on expression in E. coli": "soluble"}, {"sequence": "MSLNSQGYAVVDFETTGLSPAKGDRAIEIGLVHVAPDGTLEDEHETLIHVDRSVGASWVHHITARELLHAPDFEGIAHELRDLLAGRVFVAHNVSFDSRFLLAEYSRMGASIPVDQSTMLCTMKLSRSLIGRGKLADCCEYFGIANEDAHSALSDAHATAILLGRLLEADPKWPGFQRRLDAAGAAAEQWPTEGHHHHHH", "soluble on expression in E. coli": "not soluble"}, {"sequence": "MTDQPDLFGLAPDAPRPIIPANLPEDWQEALLPEFSAPYFHELTDFLRQERKEYTIYPPAPDVFNALRYTPLGEVKVLILGQDPYHGPNQAHGLSFSVRPGVRVPPSLRNIYKELTEDIPGFVAPKHGYLRSWAEQGVLLLNAVLTVRAGQANSHQGKGWEHFTDAVIKAVNAKEERVVFILWGSYARKKKKLITGKNHVVIESGHPSPLSEQYFFGTRPFSKTNEALEKAGRGPVEWQLPATVTEE", "soluble on expression in E. coli": "soluble"}, {"sequence": "VQREDGSWLLDGLIAVPELKDTLGLRAVPEEEKGVYHTLSGMIMWLLGRLPQTGDITFWENWRLEVIDMDSKRIDKVLATKIDNQPTEDPKPVA", "soluble on expression in E. coli": "soluble"}, {"sequence": "MEKHDICPSISEYSYHEILGFYINPVENHLASKNMLIDLDERSVEGLLIFIAECNLGIENRVMEHMNKGIRKCKDHRFT", "soluble on expression in E. coli": "not soluble"}, {"sequence": "QKLGDGHYVMDGKVRIDQVNSLLGASIQEDVDTIGGLILKENIDIEAGESIRIGSYTIKVLKMDGRLIKQIDIKEEAGNTTGITAHHKLPLPEPVMLNSATLSEK", "soluble on expression in E. coli": "not soluble"}, {"sequence": "MGSDKIHHHHHHMVHGVPCFVAHRGYPALYPENSLVGIRAAVQAGARYVEIDIQLSRQLTPYLCHDDNLKRLTGRNAYLTRLKDDEIDTLTVSCPDVTCSSGTEPAPIPRLAEFCRYLAQHPQVTTFVEIKSESIARFGLSKTMDAILPVIDVVHTQCVLISFDWELIALIKSHQMYKTGWIIEHWTDEQSAMAARLQPDYLFSSIRCLPEKLDQLWPGPWQWVIYTVDDYATALGYAEAGITLIETDTISTLLAP", "soluble on expression in E. coli": "not soluble"}]}]}
